Paper PMC5575276

How the values were obtained:
[1] = molecular target: streptavidin-Ova fusion protein (streptavidin, hexa-his tag, ovalbumin); experiment: non-denaturing SDS-PAGE; purified and refolded protein on SDS-PAGE under non-denaturing against denaturing conditions
[2] = molecular target: TLM-core protein (2xTLM-HA-HBV core with strep-tag III in the spike tip), assembled to TLM-carrier capsid (hepatitis B virus) (UniProt P03146); experiment: SPR; Biacore T200; TLM-carrier capsid (TLM-core protein) immobilised on a CM5 chip; streptavidin injected at five concentrations (4.7-75.7 nM) or streptavidin-Ova at six concentrations (1.9-62.5 nM); fitted with the heterogeneous ligand and the bivalent analyte models (1:1 model fitted poorly)
[3] = molecular target: TLM-core protein (2xTLM-HA-HBV core with strep-tag III in the spike tip), assembled to TLM-carrier capsid (hepatitis B virus) (UniProt P03146)
[4] = molecular target: recombinant hexa-his-streptavidin (UniProt P22629); experiment: non-denaturing SDS-PAGE; purified and refolded protein on SDS-PAGE under non-denaturing against denaturing conditions

Sequence of UniProt P03146 (P03146 whole entry): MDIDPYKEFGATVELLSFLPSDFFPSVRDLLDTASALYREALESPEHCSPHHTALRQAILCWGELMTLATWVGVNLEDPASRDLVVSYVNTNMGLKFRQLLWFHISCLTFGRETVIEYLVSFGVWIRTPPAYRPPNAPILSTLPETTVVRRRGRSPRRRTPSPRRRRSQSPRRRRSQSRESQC

## streptavidin-Ova fusion protein (streptavidin, hexa-his tag, ovalbumin)
[1]
  stoichiometry N: 4
[2]
  KD2 (heterogeneous ligand model, set 2, strong interaction): 1.97 nM
  Ka1 (on-rate, bivalent analyte model, step 1): 94200 M^- s^−1
  Ka2 (on-rate, bivalent analyte model, step 2): 0.000428 RU^- s^-
  Ka2 (on-rate, heterogeneous ligand model, set 2, strong interaction): 356000 M^- s^−1
  Kd1 (off-rate, bivalent analyte model, step 1): 0.0104 s⁻¹
  Kd2 (off-rate, bivalent analyte model, step 2): 0.000823 s⁻¹
  Kd2 (off-rate, heterogeneous ligand model, set 2, strong interaction): 0.0007 s⁻¹
  dissociation half-life (t 1/2) of the strong binding interaction: 16.5 min
[3]
  IFN-γ secreted (ELISA, 72 h) by OT-I CD8+ T-cells co-cultured with BMDCs: Ova-loaded TLM-carrier capsid compared with free streptavidin-Ova: > 10 fold

## recombinant hexa-his-streptavidin (from UniProt P22629 25-183) (natural protein)
[4]
  stoichiometry N: 4
[2]
  KD2 (heterogeneous ligand model, set 2, strong interaction): 4.74 nM
  Ka1 (on-rate, bivalent analyte model, step 1): 146000 M^- s^−1
  Ka2 (on-rate, bivalent analyte model, step 2): 8.16e-05 RU^- s^-
  Ka2 (on-rate, heterogeneous ligand model, set 2, strong interaction): 397000 M^- s^−1
  Kd1 (off-rate, bivalent analyte model, step 1): 0.0213 s⁻¹
  Kd2 (off-rate, bivalent analyte model, step 2): 0.00126 s⁻¹
  Kd2 (off-rate, heterogeneous ligand model, set 2, strong interaction): 0.00188 s⁻¹
